This passage reports molar ratio of CsoS1D to GST-CsoS2 in the elution fraction (densitometry) results from publication PMC4499774.

The target of this assay is GST-MED4 CsoS2 (pFC005) (Prochlorococcus marinus str. MED4). Put plainly: pull-down; E. coli co-expressing GST-MED4 CsoS2 (pFC005) with CsoS1 and CsoS1D (pFC119); Glutathione-Sepharose magnetic beads; elution by SDS-PAGE, densitometry and Western blot.
GST-MED4 CsoS2 (pFC005) (Prochlorococcus marinus str. MED4), sequence (Q7V2C8 whole entry): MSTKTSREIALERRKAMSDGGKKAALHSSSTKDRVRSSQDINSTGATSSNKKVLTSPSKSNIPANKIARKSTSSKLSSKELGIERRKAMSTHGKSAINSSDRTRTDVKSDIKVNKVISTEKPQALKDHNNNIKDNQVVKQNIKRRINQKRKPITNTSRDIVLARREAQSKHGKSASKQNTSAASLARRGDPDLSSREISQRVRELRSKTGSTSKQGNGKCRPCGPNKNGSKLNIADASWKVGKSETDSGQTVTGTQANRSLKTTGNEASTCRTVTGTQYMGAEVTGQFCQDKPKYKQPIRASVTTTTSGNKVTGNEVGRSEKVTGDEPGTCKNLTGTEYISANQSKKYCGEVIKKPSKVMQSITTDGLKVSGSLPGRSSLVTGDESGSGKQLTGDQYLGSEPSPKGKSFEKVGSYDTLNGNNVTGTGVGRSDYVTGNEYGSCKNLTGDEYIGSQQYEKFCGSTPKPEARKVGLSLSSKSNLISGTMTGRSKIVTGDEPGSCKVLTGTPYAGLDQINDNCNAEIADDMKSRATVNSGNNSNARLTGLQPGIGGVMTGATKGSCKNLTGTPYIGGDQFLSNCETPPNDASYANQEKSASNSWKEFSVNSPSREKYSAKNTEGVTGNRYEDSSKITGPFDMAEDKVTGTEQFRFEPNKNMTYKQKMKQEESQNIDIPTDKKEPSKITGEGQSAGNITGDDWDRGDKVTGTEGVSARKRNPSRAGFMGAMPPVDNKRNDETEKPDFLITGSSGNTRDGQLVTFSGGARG

B1: MED4 CsoS1D co-expressed with GST-MED4 CsoS2 (pFC119) (natural protein)
chain: MEPTSSLNRGDRKKGSSLVTGSEVQSQSNGASCFITTDSEKSLVSRQASQVEQIELRTYVFLDSLQPQLAAYMGTVSRGFLPIPGDSCLWMEVSPGMAVHRVTDIALKASNVRLGQMIVERAFGSLALYHKDQSTVLHSGDVVLDAIGSEVRKRTKPSTSWTEVICAITPDHAVLINRQNRSGSMIQSGMSMFILETEPAGYVLKAANEAEKSANITIIDVKAVGAFGRLTLAGKEGDVEEAAAAAIRAIDQISNY
Regarding B1, the molar ratio of CsoS1D to GST-CsoS2 in the elution fraction (densitometry) amounted to 5 molar ratio.
